Test results reported in PMC9108986, “Bioinformatic identification of previously unrecognized amyloidogenic proteins” (The Journal of Biological Chemistry, 2022).
Substitutions are numbered along the chain they refer to. Names and notes keep the numbering of the source.

B1: mCherry-fused low-complexity domain of TFG, residues 237-327, G269V (domain or fragment, human, UniProt Q92734 237-327, looked up)
chain: GQIEGQMYQQYQQQAGYGAQQPQAPPQQPQQYVIQYSASYSQQTGPQQPQQFQGYGQQPTSQAPAPAFSGQPQQLPAQPPQQYQASNYPAQ
notes: TRK-fused gene protein (TFG), human, low-complexity domain, residues 237-327, with the documented pathogenic mutation G269V (Charcot-Marie-Tooth disease type 2); also called TFG (237-327) G269V; mutant construct; source: E. coli BL21(DE3) Gold, purified (nickel-nitrilotriacetic acid, size-exclusion chromatography), dialyzed into PBS
B2: mCherry-fused low-complexity domain of TFG, residues 237-327, P285L (domain or fragment, human, UniProt Q92734 237-327, looked up)
chain: B1 chain with V33G, P49L
notes: also called TFG (237-327) P285L; mutant construct; source: E. coli BL21(DE3) Gold, purified (nickel-nitrilotriacetic acid, size-exclusion chromatography), dialyzed into PBS

Molecular target: the molecule itself
Experiment: amyloid fibre formation (thioflavin T fluorescence + electron microscopy + X-ray fibre diffraction); self-association into fibres; 50 uM protein in 1x PBS with 40 uM ThT, 37 °C, 700 rpm double orbital shaking with a PTFE bead, ~138 h; end-point samples imaged by negative-stain TEM; fibres diffracted (rings at 4.7 and 10 Å)

Protein | binding result
B1 | binds
B2 | binds
